Measured values taken from US20050163769A1 (AbbVie / Abbott, published 2005).

What was measured:
[1] = target: T1, recombinant soluble recombinant human α5β1 integrin-Fc fusion protein (human, UniProt P08648 42-995; P05556 21-728, limits assumed); assay: competition ELISA on coated α5β1 integrin-Fc; competitor: biotinylated IIA1
T1 construct: Coated on ELISA plates at 1.0 µg/ml; The construct's limits and the Fc are not described; not shown: Fc part
Description: (§1) Wells of 96-well ELISA plates (Nunc-Immuno MaxiSorp plate, NalgeNunc, Naperville, Ill.) were coated with 100 μl of 1.0 μg/ml recombinant soluble recombinant human α5β1 integrin-Fc fusion protein in 0.2 M sodium carbonate-bicarbonate buffer (pH 9.4) overnight at 4° C. After washing with Wash Buffer (PBS containing 0.1% Tween 20), wells were blocked with 200 μl of Superblock Blocking Buffer (Pierce) for 30 min and then washed with Wash Buffer. A mixture of biotinylated murine IIA1 (0.1 μg/test) and competitor antibody (duplicates of serial 3-fold dilutions of competitior antibodies starting at 5 mg/ml) in ELISA Buffer (PBS containing 1% BSA and 0.1% Tween 20) was applied to ELISA plates in a final volume of 100 μl per well. ELISA plates were incubated for 1 hr at room temperature and the wells were washed with Wash Buffer. Then, […] of 1/1,000-diluted HRP-conjugated streptavidin (Pierce, Rockford, Ill.) in ELISA Buffer was applied to each well. After incubating for 0.5 hr at room temperature and washing with Wash Buffer, 100 μl of TMB substrate was added to each well. Absorbance was read at 450 nm using a VERSAmax microplate reader (Molecular Devices, Menlo Park, Calif.). Final competitor concentration in the reaction was plotted versus absorbance at 450 nm.

[2] = target: T1, recombinant soluble recombinant human …; assay: competition ELISA: plate coated with human α5β1 integrin-Fc, unlabelled antibody titrated against biotinylated murine IIA1, streptavidin-HRP, O.D. 450
Description: as §1

AAB1/B2Fc [3] = target: T2, AAB1/B2Fc; assay: SPR (BIAcore), Fab immobilized by amine coupling, AAB1/B2Fc as analyte, 24° C
T2 construct: Analyte in the BIAcore experiment
Description: (§2) Affinities between AAB1/B2Fc and IIA1, M200 or F200 were analyzed using BIAcore 3000 and 2000 (BIAcore, Sweden). IIA1, M200 or F200 was immobilized on the Pioneer F 1 chip using standard amine coupling kit (BIAcore). Surface plasmon resonance was measured at a flow rate of 50 ul/min at 24° C. Injection of AAB1/B2Fc (association phase) occurs over 180 seconds. Dissociation was subsequently monitored over 3 hours. Kinetics of binding were calculated from data acquired at five different concentrations of analyte (320 nM, 160 nM, 80 nM, 40 nM, 20 nM), using the BIAevaluation program. Double-referencing was applied to eliminate responses from reference surface and buffer only control. KD was obtained by simultaneously fitting the association and dissociation phases of the sensorgram from the analyte concentration series.

AAB1/B2Fc [4] = target: T2, AAB1/B2Fc; assay: SPR (BIAcore), antibody immobilized by amine coupling, AAB1/B2Fc as analyte, 24° C
Description: as §2

T1 sequence (P08648 42-995 limits assumed, chain 1 of 2): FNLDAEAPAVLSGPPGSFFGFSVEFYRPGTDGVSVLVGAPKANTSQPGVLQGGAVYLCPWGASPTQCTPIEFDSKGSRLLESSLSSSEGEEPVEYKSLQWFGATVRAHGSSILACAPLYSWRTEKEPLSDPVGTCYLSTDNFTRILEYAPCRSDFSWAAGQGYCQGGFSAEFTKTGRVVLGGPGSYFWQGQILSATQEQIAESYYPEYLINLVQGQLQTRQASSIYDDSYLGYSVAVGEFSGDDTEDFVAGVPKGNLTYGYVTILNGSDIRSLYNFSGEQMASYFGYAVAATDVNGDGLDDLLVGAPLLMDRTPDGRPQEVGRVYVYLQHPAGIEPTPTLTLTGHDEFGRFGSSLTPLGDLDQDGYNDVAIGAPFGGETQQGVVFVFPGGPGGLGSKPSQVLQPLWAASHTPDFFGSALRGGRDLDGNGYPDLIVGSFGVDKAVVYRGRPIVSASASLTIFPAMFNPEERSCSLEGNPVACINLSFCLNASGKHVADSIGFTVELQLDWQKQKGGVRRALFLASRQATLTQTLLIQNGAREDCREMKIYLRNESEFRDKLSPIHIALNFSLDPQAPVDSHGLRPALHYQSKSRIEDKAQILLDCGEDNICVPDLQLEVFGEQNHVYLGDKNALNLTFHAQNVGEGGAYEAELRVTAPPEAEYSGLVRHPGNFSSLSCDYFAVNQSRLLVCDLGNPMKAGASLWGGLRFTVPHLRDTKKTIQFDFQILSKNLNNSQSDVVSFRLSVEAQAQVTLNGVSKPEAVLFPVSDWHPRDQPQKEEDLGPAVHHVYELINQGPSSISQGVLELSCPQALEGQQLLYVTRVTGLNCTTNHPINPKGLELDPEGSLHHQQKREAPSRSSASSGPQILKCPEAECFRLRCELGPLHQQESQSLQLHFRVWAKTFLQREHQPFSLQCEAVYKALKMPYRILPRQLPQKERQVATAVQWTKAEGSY
T1 sequence (P05556 21-728 limits assumed, chain 2 of 2): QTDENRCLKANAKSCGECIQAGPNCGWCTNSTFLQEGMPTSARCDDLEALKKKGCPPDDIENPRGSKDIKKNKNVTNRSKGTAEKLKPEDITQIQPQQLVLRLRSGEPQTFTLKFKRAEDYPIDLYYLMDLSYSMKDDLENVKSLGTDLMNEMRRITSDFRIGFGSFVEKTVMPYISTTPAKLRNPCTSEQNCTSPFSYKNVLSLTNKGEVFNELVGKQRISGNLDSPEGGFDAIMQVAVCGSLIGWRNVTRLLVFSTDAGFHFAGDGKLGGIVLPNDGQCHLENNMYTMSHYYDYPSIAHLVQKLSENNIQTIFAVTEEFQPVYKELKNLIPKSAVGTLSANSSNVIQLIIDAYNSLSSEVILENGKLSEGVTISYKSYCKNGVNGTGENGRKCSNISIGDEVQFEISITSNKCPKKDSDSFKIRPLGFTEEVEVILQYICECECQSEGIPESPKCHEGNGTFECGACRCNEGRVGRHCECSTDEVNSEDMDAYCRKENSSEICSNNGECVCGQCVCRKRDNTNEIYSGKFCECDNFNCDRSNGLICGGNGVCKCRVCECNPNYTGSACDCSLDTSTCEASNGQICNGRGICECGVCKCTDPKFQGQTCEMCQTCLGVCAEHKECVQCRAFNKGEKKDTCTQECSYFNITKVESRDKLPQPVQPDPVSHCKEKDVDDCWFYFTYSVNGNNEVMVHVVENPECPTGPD

B1: IIA1, mouse anti-human α5β1 integrin antibody (antibody, V domains shown)
VH: QVQLKESGPGLVAPSQSLSITCTISGFSLTDYGVHWVRQPPGKGLEWLVVIWSDGSSTYNSALKSRMTIRKDNSKSQVFLIMNSLQTDDSAMYYCARHGTYYGMTTTGDALDYWGQGTSVTVSS
VL: QIVLTQSPAIMSASLGERVTMTCTASSSVSSNYLHWYQQKPGSAPNLWIYSTSNLASGVPARFSGSGSGTSYSLTISSMEAEDAATYYCHQYLRSPPTFGGGTKLEIKR
notes: Mouse monoclonal antibody (Pharmingen); also called murine IIA1; M100
With B1 the IC50 [1] was 79.1 µg/mL and the “IC50 (read off the curve)” value [2] was roughly 0.02 µg.

B2: F200, Fab fragment of M200 (Fab, V domains shown)
VH: B1 VH
VL: B1 VL
notes: Made by papain digestion of M200 IgG
B2 was tested, and the Kd (AAB1/B2Fc [3]) was 0.332 nM.

B3: M200 chimeric anti-α5β1 integrin antibody (antibody, human IgG4, kappa, V domains shown)
VH: B1 VH
VL: B1 VL
notes: Mouse/human chimeric IgG4/kappa; also called 200-M; 200-4 EOS
In the case of B3, the IC50 [1] is reported as 106 µg/mL, the Kd (AAB1/B2Fc [4]) is reported as 0.367 nM and the “IC50 (read off the curve)” value [2] is reported as roughly 0.02 µg.

B4: HuM200, humanized M200 with IgG4 constant region (antibody, V domains shown)
VH: EVQLVESGGGLVQPGGSLRLSCAASGFSLTDYGVHWVRQAPGKGLEWLVVIWSDGSSTYNSALKSRMTISKDNAKNTVYLQMNSLRAEDTAVYYCARHGTYYGMTTTGDALDYWGQGTLVTVSS
VL: EIVLTQSPATLSLSPGERATLSCTASSSVSSNYLHWYQQKPGQAPRLLIYSTSNLASGVPARFSGSGSGTSYTLTISSLEPEDFAVYYCHQYLRSPPTFGGGTKVEIKR
notes: Humanized IgG4; also called HuM200-G4; huM200-G4
With B4 the IC50 [1] was 132 µg/mL and the “IC50 (read off the curve)” value [2] was roughly 0.02 µg.

B5: HuM200-g2 m3G, humanized M200 with IgG2 constant region (antibody, V domains shown)
VH: B4 VH
VL: EIVLTQSPATLSLSPGERATLSCTASSSVSSNYLHWYQQKPGQAPRLLIYSTSNLASGVPARFSGSGSGTSYTLTISSLEPEDFAVYYCHQYLRSPPTFGGGTKVEIK
notes: Same variable domains as HuM200 with a constant region of IgG2
With B5 the IC50 [1] was 103 µg/mL and the “IC50 (read off the curve)” value [2] was roughly 0.02 µg.
